Tests used:
[1] = molecular target: T1, ErbB2&ErbB3 co-expressed on COS7 cells (UniProt P04626 23-1255; P21860 20-1342, limits assumed); assay: receptor binding affinity assay on COS7 cells co-expressing ErbB2&ErbB3
T1 construct: whole, on cells; Both receptors are co-expressed on the same cells, and the numbers are for these cells, not for a single receptor; also called COS7 cells (ErbB2&ErbB3 co-expression)
Experimental: (§1) To study the receptor binding affinity of neuregulin and its mutations, ErbB2&ErbB3 or ErbB2&ErbB4 co-expressing COS7 are used. The cells are grown to 80% confluence. In the afternoon, after the cells reach 80% confluence, the media is changed to serum free media. Then, after 24 hours, the cells are harvested for receptor binding affinity assays.

[2] = molecular target: T2, ErbB2&ErbB4 co-expressed on COS7 cells (UniProt P04626 23-1255; Q15303 26-1308, limits assumed); assay: receptor binding affinity assay on COS7 cells co-expressing ErbB2&ErbB4
T2 construct: whole, on cells; Both receptors are co-expressed on the same cells, and the numbers are for these cells, not for a single receptor; also called COS7 cells (ErbB2&ErbB4 co-expression)
Experimental: as §1

[3] = molecular target: T1, ErbB2&ErbB3 co-expressed on COS7 cells; assay: competition of bound radiolabeled ligands on COS7 cells co-expressing ErbB2&ErbB3
Experimental: as §1

[4] = molecular target: T2, ErbB2&ErbB4 co-expressed on COS7 cells; assay: competition of bound radiolabeled ligands on COS7 cells co-expressing ErbB2&ErbB4
Experimental: as §1

B1: neuregulin (the 177-237 amino acids fragment of neuregulin1 β2) (ligand)
chain: SHLVKCAEKEKTFCVNGGECFMVKDLSNPSRYLCKCPNEFTGDRCQNYVMASFYKAEELYQ
notes: also called NRG; NRG-1β
[1]
  Kd: 1.41 nM
[2]
  Kd: 0.282 nM
[3]
  EC50: 113 nM
[4]
  EC50: 132 nM

B2: neuregulin variant D43A (ligand)
chain: SHLVKCAEKEKTFCVNGGECFMVKDLSNPSRYLCKCPNEFTGARCQNYVMASFYKAEELYQ
[3]
  EC50: 149 nM
[4]
  EC50: 40.7 nM

B3: neuregulin variant L3A (ligand)
chain: SHAVKCAEKEKTFCVNGGECFMVKDLSNPSRYLCKCPNEFTGDRCQNYVMASFYKAEELYQ
[1]
  Kd: 1.15 nM
[2]
  Kd: 1.06 nM
